Source: patent publication US20220017622A1 (Pfizer, published 2022)

Legend:
human B7-H4 on cells [1] = biological target: T1, human B7-H4 on cells (human, UniProt Q7Z7D3 25-282); experiment: cell-based or functional assay
T1 sequence (looked up): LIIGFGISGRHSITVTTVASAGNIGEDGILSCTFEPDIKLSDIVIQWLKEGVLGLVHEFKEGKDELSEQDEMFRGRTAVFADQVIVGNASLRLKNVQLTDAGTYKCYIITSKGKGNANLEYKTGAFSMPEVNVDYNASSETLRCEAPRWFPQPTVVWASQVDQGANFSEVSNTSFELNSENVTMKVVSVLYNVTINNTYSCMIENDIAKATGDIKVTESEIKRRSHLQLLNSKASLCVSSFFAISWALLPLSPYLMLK

human B7-H4 on cells [2] = biological target: T1, human B7-H4 on cells; experiment: flow cytometry on MX-1 cells, 37 C
[3] = biological target: T2, human CD3 on primary human T cells (human, UniProt P07766 23-207; P04234 22-171); experiment: flow cytometry on primary human T cells, 37 C
T2 construct: whole, on cells; On cells the whole CD3/TCR complex is present
T2 sequence (P07766 23-207, chain 1 of 2): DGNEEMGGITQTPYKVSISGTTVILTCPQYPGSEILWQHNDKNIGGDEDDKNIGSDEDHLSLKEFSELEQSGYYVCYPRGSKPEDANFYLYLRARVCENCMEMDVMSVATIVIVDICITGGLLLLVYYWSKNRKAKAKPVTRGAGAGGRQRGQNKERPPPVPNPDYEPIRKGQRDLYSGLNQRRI
T2 sequence (P04234 22-171, chain 2 of 2): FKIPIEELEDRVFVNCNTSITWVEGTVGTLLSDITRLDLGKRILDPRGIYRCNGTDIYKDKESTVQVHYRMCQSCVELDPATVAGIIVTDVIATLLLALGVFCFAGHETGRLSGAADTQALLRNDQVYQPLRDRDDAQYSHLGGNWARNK

B1: B7-H4xCD3 bispecific antibody 1134 (bispecific antibody, IgG2)
heavy 1: EVQLVESGGGLVQPGGSLRLSCAVSGGSFSGYYWNWIRQPPGKGLEWIGEIDHQGSTKYNPSLKSRVTISVDTAKNSFYLQMNSLRAEDTAVYYCARGLYNWNVDHWGQGTLVTVSSASTKGPSVFPLAPCSRSTSESTAALGCLVKDYFPEPVTVSWNSGALTSGVHTFPAVLQSSGLYSLSSVVTVPSSNFGTQTYTCNVDHKPSNTKVDKTVERKCEVECPECPAPPVAGPSVFLFPPKPKDTLMISRTPEVTCVVVAVSHEDPEVQFNWYVDGVEVHNAKTKPREEQFNSTFRVVSVLTVVHQDWLNGKEYKCKVSNKGLPSSIEKTISKTKGQPREPQVYTLPPSREEMTKNQVSLTCEVKGFYPSDIAVEWESNGQPENNYKTTPPMLDSDGSFFLYSKLTVDKSRWQQGNVFSCSVMHEALHNHYTQKSLSLSPG
light 1: DIQMTQSPSSLSASVGDRVTITCRASQGIRNDLGWYQQKPGKAPKRLIYAASSLQSGVPSRFSGSGSGTDFTLTISSLQPEDFATYYCLQHNAYPRTFGGGTKVEIKRTVAAPSVFIFPPSDEQLKSGTASVVCLLNNFYPREAKVQWKVDNALQSGNSQESVTEQDSKDSTYSLSSTLTLSKADYEKHKVYACEVTHQGLSSPVTKSFNRGEC
heavy 2: EVQLVESGGGLVQPGGSLRLSCAASGFTFSDYYMTWVRQAPGKGLEWVAFIRNQARGYTSDHNPSVKGRFTISRDNAKNSLYLQMNSLRAEDTAVYYCARDRPSYYVLDYWGQGTTVTVSSASTKGPSVFPLAPCSRSTSESTAALGCLVKDYFPEPVTVSWNSGALTSGVHTFPAVLQSSGLYSLSSVVTVPSSNFGTQTYTCNVDHKPSNTKVDKTVERKCRVRCPRCPAPPVAGPSVFLFPPKPKDTLMISRTPEVTCVVVAVSHEDPEVQFNWYVDGVEVHNAKTKPREEQFNSTFRVVSVLTVVHQDWLNGKEYKCKVSNKGLPSSIEKTISKTKGQPREPQVYTLPPSREEMTKNQVSLTCLVKGFYPSDIAVEWESNGQPENNYKTTPPMLDSDGSFFLYSRLTVDKSRWQQGNVFSCSVMHEALHNHYTQKSLSLSPGK
light 2: DIQMTQSPSSLSASVGDRVTITCTSSQSLFNVRSQKNYLAWYQQKPGKAPKLLIYWASTRESGVPSRFSGSGSGTDFTLTISSLQPEDFATYYCKQSYDLFTFGGGTKVEIKRTVAAPSVFIFPPSDEQLKSGTASVVCLLNNFYPREAKVQWKVDNALQSGNSQESVTEQDSKDSTYSLSSTLTLSKADYEKHKVYACEVTHQGLSSPVTKSFNRGEC
notes: Chains 1-2: B7-H4 arm; chains 3-4: CD3 arm; IgG2
- T cell mediated tumor cell killing EC50, HCC1954-Luc (human B7-H4 on cells [1]): 1560 nM
- T cell mediated tumor cell killing, OVCAR3-Luc (human B7-H4 on cells [1]): 540
- T cell mediated tumor cell killing, T47D (human B7-H4 on cells [1]): 7330
- EC50 (human B7-H4 on cells [2]): 17.6 nM
- EC50 [3]: 6.9 nM
